{"source": "patent CN107880130A", "about": "(SHENZHEN GUOCHUANG NANO ANTIBODY TECH CO LTD, dated 2018)", "binders": {"B1": {"name": "2D5 连接至带有恒定区的载体 (2D5 nanobody with constant region) (Fc fusion)", "chain": "ESGGGLVQAGGSLRLSCVASGRTFSSHPMGWFRQAPGKEREFVAGISWSGGSTHYADSVKGRFTISRDTAKNTVYLQMNSLKPEDTAVYYCNAALSERTPIATMPSQYDYWGQGT", "notes": "not shown: constant region from the vector"}}, "key": {"[1]": {"biological_target": "T1, HE4 (UniProt Q14508 31-124)", "T1 sequence (looked up)": "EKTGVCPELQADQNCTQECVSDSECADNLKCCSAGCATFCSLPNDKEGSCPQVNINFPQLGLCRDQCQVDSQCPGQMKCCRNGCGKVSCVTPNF", "assay": "SPR (Biacore T100), antibody captured by Protein A, antigen injected"}, "[2]": {"biological_target": "T2, CEACAM1 (UniProt P13688 35-428, limits assumed)", "T2 sequence (looked up)": "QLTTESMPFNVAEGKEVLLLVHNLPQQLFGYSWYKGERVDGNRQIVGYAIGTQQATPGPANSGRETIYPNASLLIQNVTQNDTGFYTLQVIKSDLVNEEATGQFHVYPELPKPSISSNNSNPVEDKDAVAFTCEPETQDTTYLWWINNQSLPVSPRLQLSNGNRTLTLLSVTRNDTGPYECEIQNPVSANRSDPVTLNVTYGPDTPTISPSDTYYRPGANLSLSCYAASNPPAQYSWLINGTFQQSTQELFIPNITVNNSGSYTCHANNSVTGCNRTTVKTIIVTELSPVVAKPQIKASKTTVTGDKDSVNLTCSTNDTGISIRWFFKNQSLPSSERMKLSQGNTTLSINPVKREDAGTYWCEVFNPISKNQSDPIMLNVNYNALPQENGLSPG", "assay": "SPR (Biacore T100), antibody captured by Protein A, antigen injected"}, "[3]": {"biological_target": "T3, CEACAM3 (UniProt P40198 35-155, limits assumed)", "T3 sequence (looked up)": "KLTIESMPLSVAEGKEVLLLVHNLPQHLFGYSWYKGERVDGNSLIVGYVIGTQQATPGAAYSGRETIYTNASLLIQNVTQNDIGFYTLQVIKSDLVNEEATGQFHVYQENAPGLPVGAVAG", "assay": "SPR (Biacore T100), antibody captured by Protein A, antigen injected"}, "[4]": {"biological_target": "T4, CEACAM6 (UniProt P40199 35-320, limits assumed)", "T4 sequence (looked up)": "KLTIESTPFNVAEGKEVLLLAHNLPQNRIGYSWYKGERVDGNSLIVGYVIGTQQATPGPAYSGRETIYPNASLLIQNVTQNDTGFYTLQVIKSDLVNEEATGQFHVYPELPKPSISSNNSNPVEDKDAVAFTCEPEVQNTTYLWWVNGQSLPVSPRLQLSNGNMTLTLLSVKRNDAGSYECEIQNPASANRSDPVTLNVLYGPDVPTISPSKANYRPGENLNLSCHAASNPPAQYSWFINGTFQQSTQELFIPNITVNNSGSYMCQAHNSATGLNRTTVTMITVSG", "assay": "SPR (Biacore T100), antibody captured by Protein A, antigen injected"}, "[5]": {"biological_target": "T5, CEACAM8 (UniProt P31997 35-320, limits assumed)", "T5 sequence (looked up)": "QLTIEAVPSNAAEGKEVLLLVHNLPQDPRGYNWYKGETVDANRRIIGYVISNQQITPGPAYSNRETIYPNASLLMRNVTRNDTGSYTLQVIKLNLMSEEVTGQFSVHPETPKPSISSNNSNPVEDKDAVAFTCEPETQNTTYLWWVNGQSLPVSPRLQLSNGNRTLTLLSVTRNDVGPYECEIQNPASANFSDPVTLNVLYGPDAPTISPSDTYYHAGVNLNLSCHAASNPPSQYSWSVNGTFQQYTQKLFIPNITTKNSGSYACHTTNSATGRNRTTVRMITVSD", "assay": "SPR (Biacore T100), antibody captured by Protein A, antigen injected"}, "[6]": {"biological_target": "T6, AFP (UniProt P02771 19-609)", "T6 sequence (looked up)": "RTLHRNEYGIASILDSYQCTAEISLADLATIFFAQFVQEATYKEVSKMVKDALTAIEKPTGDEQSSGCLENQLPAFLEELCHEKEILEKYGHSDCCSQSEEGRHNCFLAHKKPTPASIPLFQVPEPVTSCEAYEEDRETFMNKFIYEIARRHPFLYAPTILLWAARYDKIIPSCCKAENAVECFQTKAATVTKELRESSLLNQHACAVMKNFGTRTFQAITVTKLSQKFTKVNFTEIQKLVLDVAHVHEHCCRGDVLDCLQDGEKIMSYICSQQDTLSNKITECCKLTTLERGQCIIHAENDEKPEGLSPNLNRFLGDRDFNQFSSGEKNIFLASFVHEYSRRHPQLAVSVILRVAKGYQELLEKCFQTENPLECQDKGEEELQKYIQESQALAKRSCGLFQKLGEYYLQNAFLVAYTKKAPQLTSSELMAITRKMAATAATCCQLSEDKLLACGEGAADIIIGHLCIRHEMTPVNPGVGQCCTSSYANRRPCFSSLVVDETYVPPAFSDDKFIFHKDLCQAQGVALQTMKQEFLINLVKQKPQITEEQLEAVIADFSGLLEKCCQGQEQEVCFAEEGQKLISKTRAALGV", "assay": "SPR (Biacore T100), antibody captured by Protein A, antigen injected"}, "[7]": {"biological_target": "癌胚抗原 (CEA, CEACAM5) (UniProt P06731)", "assay": "SPR (Biacore T100), antibody captured by Protein A, antigen injected at 100μg/ml"}}}
{"binder": "B1", "values": [{"measurement": "binding result", "setting": "[1]", "result": "no binding (tested: 100μg/ml)"}, {"measurement": "binding result", "setting": "[2]", "result": "no binding (tested: 100μg/ml)"}, {"measurement": "binding result", "setting": "[3]", "result": "no binding (tested: 100μg/ml)"}, {"measurement": "binding result", "setting": "[4]", "result": "no binding (tested: 100μg/ml)"}, {"measurement": "binding result", "setting": "[5]", "result": "no binding (tested: 100μg/ml)"}, {"measurement": "binding result", "setting": "[6]", "result": "no binding (tested: 100μg/ml)"}, {"measurement": "结合 (SPR binding response)", "setting": "[7]", "result": 53.3}]}
